In patent publication US20220233690A1:

Molecular target: CD40 (human) (UniProt P25942)
Experiment: cell-based or functional assay

UniProt P25942, sequence (P25942 21-277): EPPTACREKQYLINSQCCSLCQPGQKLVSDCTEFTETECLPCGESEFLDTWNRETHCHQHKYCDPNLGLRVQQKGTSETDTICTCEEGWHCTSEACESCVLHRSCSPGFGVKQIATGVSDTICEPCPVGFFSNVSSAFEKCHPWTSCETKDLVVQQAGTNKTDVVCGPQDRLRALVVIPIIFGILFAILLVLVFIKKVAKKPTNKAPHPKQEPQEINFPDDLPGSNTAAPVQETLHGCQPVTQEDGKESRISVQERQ

Substance: Anti-CD40 antibody (IgG1 mutant, REGN3794)
- T cell activation (percentage of live CD2+CD16-CD8+ cells expressing CD25) (% below CD20×CD3 (REGN1979) alone): 35
